The values below come from patent KR20230139570A (dated 2023).

Positions count from the first letter of the chain named.

The target of assay [1] is CD47 단백질 (Acrobiosystems, cat# CD7-HA2E9) (UniProt Q08722). As to the kind of experiment: ELISA, CD47 protein coated, negative control. For orientation: An ELISA detects its analyte on a solid surface through an enzyme-linked reagent.
For assay [2], the target named is CD47 on CD47-overexpressing breast cancer cell line MCF-7 (UniProt Q08722). Description: flow cytometry on MCF-7 cells, secondary antibody alone (background control). (A flow cytometer gives signals particle by particle.)
The target of assay [3] is CD47 단백질 (Acrobiosystems, cat# CD7-HA2E9) (UniProt Q08722). As to the kind of experiment: ELISA, CD47 protein coated, same method as Example 2-1.
Assay [4] addresses 인간 CD47 단백질 (Human CD47, SPR analyte) (human, UniProt Q08722 19-139, limits assumed). Description: SPR, Biacore 8K, antibody captured, human CD47 as analyte. On the technique in general: In SPR one partner is held on a chip, and binding of the other changes the refractive index at the surface.

As usually defined, the Kd is the constant that tells how readily two partners part at equilibrium. By koff is commonly meant the first-order rate constant of dissociation. Read a high koff as a short-lived complex. In general, kon refers to the rate constant with which the complex forms. High values mean faster complex formation, low ones slower complex formation.

Chain of 인간 CD47 단백질 (Human CD47, SPR analyte) (Q08722 19-139 limits assumed): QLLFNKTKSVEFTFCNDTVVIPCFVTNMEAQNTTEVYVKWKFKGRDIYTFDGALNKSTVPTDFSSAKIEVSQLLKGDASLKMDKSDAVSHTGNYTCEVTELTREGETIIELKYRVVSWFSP

“음성대조군 (negative control of the Hu3A5V10 ELISA)”: the OD450 in assay [1] is 0.0431 OD450.
In assay [2], “PE-conjugated goat anti-mouse IgG (Biolegend Inc., cat# 405307) (antibody)” yielded a Mean (fluorescence) of 80 and a Median (fluorescence) of 73.9.

B1: Hu3A5V10 항체 (humanized 3A5 antibody, as tested in Example 4) (antibody, V domains shown)
VH: EVQLVQSGSELKKPGASVKVSCKASGYTFTSYWMHWMRQAPGQGLEWIGVIDPSDSYTSYNQGFTGRFVLSVDTSVSTAYLQISSLKAEDTAVYYCARGGKRAMDYWGQGTTVTVSS
VL: DVVMTQSPLSLPVTLGQPASISCRSSQSLVHSNGNTYLHWFQQRPGQSPRLLIYKVSNRFSGVPDRFSGSGSGTDFTLKISRVEAEDVGVYYCSQSTHVPFTFGGGTKLEIK
Turning to B1, the OD450 in assay [3] stood at 2.81 OD450.

B2: AHF16310 전장 항체 (full length antibody, IgG4) (antibody, V domains shown)
VH: B1 VH with S54N, A103M
VL: DVVMTQSPLSLPVTLGQPASISCRSSQSLVHSNGNTYLHWFQQRPGQSPRLLIYKVSNRFTGVPDRFSGSGSGTDFTLKISRVEAEDVGVYYCSQSTHVPFTFGGGTKLEIKR
notes: also called AHF16310 항체
Turning to B2, in assay [4], the Kd is 0.208 nM, the koff amounted to 0.000458 s⁻¹ and the kon worked out at 2.21e+06 M⁻¹ s⁻¹.

B3: Hu3A5V10 전장 항체 (full length antibody, IgG4) (antibody, V domains shown)
VH: B1 VH
VL: B2 VL with T61S
notes: also called U822EGG010-Hu3A5V10
In assay [4], B3 showed a Kd of 0.465 nM, a koff of 0.000467 s⁻¹ and a kon of 1e+06 M⁻¹ s⁻¹.

B4: AHF16309 전장 항체 (full length antibody, IgG4) (antibody, V domains shown)
VH: B1 VH with S54N, A103M
VL: B2 VL with H39N, T61P
notes: also called AHF16309 항체
In assay [4], B4 came in with a Kd of 0.312 nM, a koff of 0.000865 s⁻¹ and an on-rate (kon) of 2.78e+06 M⁻¹ s⁻¹.

B5: AHF16312 전장 항체 (full length antibody, IgG4) (antibody, V domains shown)
VH: B1 VH with S54N, A103I
VL: B2 VL with H39N
notes: also called AHF16312 항체
In assay [4], B5 showed a Kd of 0.166 nM, an off-rate constant (koff) of 0.000307 s⁻¹ and a kon of 1.85e+06 M⁻¹ s⁻¹.
